Legend:
[1] = target: StGyrA-CTD R716A R716A (Salmonella enterica serovar Typhi CT18) (UniProt A0A1U7FVV6); assay: fluorescence binding
[2] = target: StGyrA-CTD R712A R712A (Salmonella enterica serovar Typhi CT18) (UniProt A0A1U7FVV6); assay: fluorescence binding
[3] = target: StGyrA-CTD R667A R667A (Salmonella enterica serovar Typhi CT18) (UniProt A0A1U7FVV6); assay: fluorescence binding
[4] = target: StGyrA-CTD R817A R817A (Salmonella enterica serovar Typhi CT18) (UniProt A0A1U7FVV6); assay: fluorescence binding
[5] = target: StGyrA-CTD R766A R766A (Salmonella enterica serovar Typhi CT18) (UniProt A0A1U7FVV6); assay: fluorescence binding
[6] = target: Salmonella enterica serovar Typhi DNA Gyrase A C-terminal domain (StGyrA-CTD) (Salmonella enterica serovar Typhi (CT18 strain)); assay: SEC
[7] = target: StGyrA-CTD D692A (Salmonella enterica serovar Typhi CT18, UniProt A0A1U7FVV6 530-840, D692A); assay: fluorescence binding; 1 mM Mg2+; details: protein: recombinant; tags: C-terminal 6xHis; blunt
[8] = target: StGyrA-CTD wild type (Salmonella enterica serovar Typhi CT18, UniProt A0A1U7FVV6 530-840); assay: fluorescence binding; 1 mM Mg2+; details: protein: recombinant; tags: C-terminal 6xHis (pET-28a); chain copies: 2; blunt
[9] = target: StGyrA-CTD R612A (Salmonella enterica serovar Typhi CT18, UniProt A0A1U7FVV6 530-840, R612A); assay: fluorescence binding; 1 mM Mg2+; text gives 220-250 nM for other mutants; details: protein: recombinant; tags: C-terminal 6xHis; blunt

Molecule: TAAAGTCTAGAGACACGCATAGTCAATGACGGAGTTA (double strand) [FAM-37 bp DNA]
- Kd [1]: 277 nM
- Kd [2]: 231 nM
- Kd [3]: 263 nM
- Kd [4]: 204 nM
- Kd [5]: 221 nM

Molecule: Salmonella enterica serovar Typhi DNA Gyrase A C-terminal domain (StGyrA-CTD) (domain or fragment)
- stoichiometry N [6]: 2

B1: FAM-37 bp DNA (dsDNA)
DNA 1: TAAAGTCTAGAGACACGCATAGTCAATGACGGAGTTA
DNA 2: TAACTCCGTCATTGACTATGCGTGTCTCTAGACTTTA
- Kd [7]: 129 nM
- Kd [8]: 122 nM
- Kd [9]: 135 nM
